Consider one substance from article PMC7840605.

pIC50: −log10 of the molar value.

One may read the pIC50 as the IC50 on a negative log10 scale, so that one unit is a factor of ten. The low end stands for a high IC50, the high end for a low IC50.

Assay [1] addresses SARS-CoV-2 spike (S) protein (SARS-CoV-2) (UniProt P0DTC2).
The target is the same in assay [2]. This is another data set of the same source.
For assay [3] the target is unchanged. The source holds these as a separate data set.
For assay [4], the target named is SARS-CoV-2 S protein (RBD) (SARS-CoV-2) (UniProt P0DTC2). The assay is described as follows: ELISA; competitive inhibition ELISA: 1 μg/ml ACE2 coated in 0.01 M Tris pH 8.8; S (RBD) 1 μg/ml pre-incubated with HP-OVA or unmodified OVA at the indicated concentrations was added; antibody detection, absorbance at 450 nm. In general terms: An ELISA detects its analyte on a solid surface through an enzyme-linked reagent.

In assay [1], “3-hydroxyphthalic anhydride-modified chicken ovalbumin (from UniProt P01012 1-386)” came in with an IC50 against live SARS-CoV-2 in Vero E6 cells (CPE assay); blocks S with ACE2 of 4780 nM and an IC90 against live SARS-CoV-2 in Vero E6 cells (CPE assay); blocks S with ACE2 of 12200 nM. In assay [2], this substance had an IC50 of inhibition of SARS-CoV-2 S pseudovirus entry into 293T/ACE2 cells (luciferase); blocks S with ACE2 of 700 nM and an IC50 of inhibition of SARS-CoV-2 S pseudovirus entry into Vero E6 cells (luciferase); blocks S with ACE2 of 1210 nM. In assay [3], this substance displayed an IC50 of inhibition of S-mediated cell-cell fusion of 293T/SARS-CoV-2/EGFP and Huh 7 cells; blocks S with ACE2 of 1540 nM; an IC50 of inhibition of S-mediated cell-cell fusion of 293T/SARS-CoV-2/EGFP and Vero E6 cells; blocks S with ACE2 of 1740 nM. This substance also had a pIC50 in assay [4] of 4.75.
